Test results from patent US12338277.

Key:
Assay in all cases: cell-based or functional assay
[1] = target: HIV-1 envelope of pseudovirus CNE21 (HIV-1)
[2] = target: HIV-1 envelope of pseudovirus Q23.17 (HIV-1)
[3] = target: HIV-1 Env of pseudovirus X1632_S2_B10 (HIV-1)
[4] = target: HIV-1 envelope of pseudovirus RHPA4259.7 (HIV-1)
[5] = target: HIV-1 envelope of pseudovirus Ce703010054_2A2 (HIV-1)
[6] = target: HIV-1 Env of pseudovirus Ce2060_G9 (HIV-1)
[7] = target: HIV-1 envelope of pseudovirus WEAU_d15_410_787 (HIV-1)
[8] = target: HIV-1 envelope of pseudovirus 6240_08_TA5_4622 (HIV-1)
[9] = target: HIV-1 envelope of pseudovirus C4118.c09 (HIV-1)
[10] = target: HIV-1 Env of pseudovirus Ce2010_F5 (HIV-1)
[11] = target: HIV-1 envelope of pseudovirus ZM249M.PL1 (HIV-1)
[12] = target: HIV-1 envelope of pseudovirus Ce704809221_1B3 (HIV-1)
[13] = target: HIV-1 envelope of pseudovirus 6041.v3.c23 (HIV-1)
[14] = target: HIV-1 Env of pseudovirus 620345.c01 (HIV-1)
[15] = target: HIV-1 envelope of pseudovirus T255-34 (HIV-1)
[16] = target: HIV-1 Env of pseudovirus MS208.A1 (HIV-1)
[17] = target: HIV-1 envelope of pseudovirus A07412M1.vrc12 (HIV-1)
[18] = target: HIV-1 envelope of pseudovirus CNE52 (HIV-1)
[19] = target: HIV-1 envelope of pseudovirus 6540.v4.c1 (HIV-1)
[20] = target: HIV-1 envelope of pseudovirus 6811.v7.c18 (HIV-1)
[21] = target: HIV-1 envelope of pseudovirus X1254_c3 (HIV-1)
[22] = target: HIV-1 envelope of pseudovirus CAP210.2.00.E8 (HIV-1)
[23] = target: HIV-1 envelope of pseudovirus C1080.c03 (HIV-1)
[24] = target: HIV-1 Env of pseudovirus 62357_14_03_4589 (HIV-1)
[25] = target: HIV-1 Env of pseudovirus 6540.v4.c1 (HIV-1)
[26] = target: HIV-1 Env of pseudovirus ZM249M.PL1 (HIV-1)
[27] = target: HIV-1 Env of pseudovirus 6811.v7.c18 (HIV-1)
[28] = target: HIV-1 envelope of pseudovirus Q259.d2.17 (HIV-1)
[29] = target: HIV-1 envelope spike of pseudovirus TRJO4551.58 (HIV-1)
[30] = target: HIV-1 Env of pseudovirus ZM233M.PB6 (HIV-1)
[31] = target: HIV-1 Env of pseudovirus 3817.v2.c59 (HIV-1)
[32] = target: HIV-1 Env of pseudovirus C3347.c11 (HIV-1)
[33] = target: HIV-1 envelope spike of pseudovirus QH0692.42 (HIV-1)
[34] = target: HIV-1 Env of pseudovirus ZM197M.PB7 (HIV-1)
[35] = target: HIV-1 Env of pseudovirus PVO.4 (HIV-1)
[36] = target: HIV-1 envelope of pseudovirus CNE8 (HIV-1)
[37] = target: HIV-1 Env of pseudovirus 231965.c01 (HIV-1)
[38] = target: HIV-1 envelope of pseudovirus BJOX028000.10.3 (HIV-1)
[39] = target: HIV-1 envelope of pseudovirus 246F C1G (HIV-1)
[40] = target: HIV-1 envelope spike of pseudovirus PVO.4 (HIV-1)
[41] = target: HIV-1 Env of pseudovirus 263-8 (HIV-1)
[42] = target: HIV-1 Env of pseudovirus BJOX015000.11.5 (HIV-1)
[43] = target: HIV-1 envelope of pseudovirus QH0692.42 (HIV-1)
[44] = target: HIV-1 Env of pseudovirus CNE5 (HIV-1)
[45] = target: HIV-1 Env of pseudovirus 191084 B7-19 (HIV-1)
[46] = target: HIV-1 Env of pseudovirus Q23.17 (HIV-1)
[47] = target: HIV-1 Env of pseudovirus CNE21 (HIV-1)
[48] = target: HIV-1 envelope of pseudovirus CNE58 (HIV-1)
[49] = target: HIV-1 envelope of pseudovirus 3365.v2.c2 (HIV-1)
[50] = target: HIV-1 envelope of pseudovirus 231966.c02 (HIV-1)

Sequence of 10-1074 (antibody) (VH): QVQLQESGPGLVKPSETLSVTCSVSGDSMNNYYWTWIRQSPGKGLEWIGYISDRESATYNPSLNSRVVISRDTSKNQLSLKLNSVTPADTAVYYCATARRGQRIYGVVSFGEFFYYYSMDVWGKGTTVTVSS
Sequence of 10-1074 (antibody) (V domain): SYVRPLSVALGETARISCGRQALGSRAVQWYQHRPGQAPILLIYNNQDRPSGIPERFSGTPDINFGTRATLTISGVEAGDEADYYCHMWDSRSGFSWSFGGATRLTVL

10-1074 (antibody)
IC50 (TZM-bl neutralization) [1]: 0.087 µg/mL
IC50 (TZM-bl neutralization) [2]: 0.006 µg/mL
IC80 (TZM-bl neutralization) [3]: > 50 µg/mL
IC50 (TZM-bl neutralization) [4]: 0.021 µg/mL
IC50 (TZM-bl neutralization) [5]: > 50 µg/mL
IC80 (TZM-bl neutralization) [6]: > 50 µg/mL
IC50 (TZM-bl neutralization) [7]: 0.104 µg/mL
IC50 (TZM-bl neutralization) [8]: 0.068 µg/mL
IC50 (TZM-bl neutralization) [9]: > 50 µg/mL
IC80 (TZM-bl neutralization) [10]: > 50 µg/mL
IC50 (TZM-bl neutralization) [11]: > 50 µg/mL
IC50 (TZM-bl neutralization) [12]: 0.139 µg/mL
IC50 (TZM-bl neutralization) [13]: > 50 µg/mL
IC80 (TZM-bl neutralization) [14]: > 50 µg/mL
IC50 (TZM-bl neutralization) [15]: > 50 µg/mL
IC80 (TZM-bl neutralization) [16]: > 50 µg/mL
IC50 (TZM-bl neutralization) [17]: < 0.001 µg/mL
IC50 (TZM-bl neutralization) [18]: 1.23 µg/mL
IC50 (TZM-bl neutralization) [19]: > 50 µg/mL
IC50 (TZM-bl neutralization) [20]: 0.002 µg/mL
IC50 (TZM-bl neutralization) [21]: 0.089 µg/mL
IC50 (TZM-bl neutralization) [22]: > 50 µg/mL
IC50 (TZM-bl neutralization) [23]: > 50 µg/mL
IC80 (TZM-bl neutralization) [24]: > 50 µg/mL
IC80 (TZM-bl neutralization) [25]: > 50 µg/mL
IC80 (TZM-bl neutralization) [26]: > 50 µg/mL
IC80 (TZM-bl neutralization) [27]: 0.01 µg/mL
IC50 (TZM-bl neutralization) [28]: > 50 µg/mL
IC50 (TZM-bl neutralization assay) [29]: 0.17 µg/mL
IC80 (TZM-bl neutralization assay) [29]: 0.693 µg/mL
IC80 (TZM-bl neutralization) [30]: 0.349 µg/mL
IC80 (TZM-bl neutralization) [31]: 14.9 µg/mL
IC80 (TZM-bl neutralization) [32]: > 50 µg/mL
IC50 (TZM-bl neutralization assay) [33]: 0.259 µg/mL
IC80 (TZM-bl neutralization assay) [33]: 0.861 µg/mL
IC80 (TZM-bl neutralization) [34]: > 50 µg/mL
IC80 (TZM-bl neutralization) [35]: 0.36 µg/mL
IC50 (TZM-bl neutralization) [36]: > 50 µg/mL
IC80 (TZM-bl neutralization) [37]: > 50 µg/mL
IC50 (TZM-bl neutralization) [38]: > 50 µg/mL
IC50 (TZM-bl neutralization) [39]: 0.022 µg/mL
IC50 (TZM-bl neutralization assay) [40]: 0.178 µg/mL
IC80 (TZM-bl neutralization assay) [40]: 0.766 µg/mL
IC80 (TZM-bl neutralization) [41]: 6.53 µg/mL
IC80 (TZM-bl neutralization) [42]: > 50 µg/mL
IC50 (TZM-bl neutralization) [43]: 0.191 µg/mL
IC80 (TZM-bl neutralization) [44]: > 50 µg/mL
IC80 (TZM-bl neutralization) [45]: 0.128 µg/mL
IC80 (TZM-bl neutralization) [46]: 0.021 µg/mL
IC80 (TZM-bl neutralization) [47]: 0.181 µg/mL
IC50 (TZM-bl neutralization) [48]: 0.267 µg/mL
IC50 (TZM-bl neutralization) [49]: 0.131 µg/mL
IC50 (TZM-bl neutralization) [50]: > 50 µg/mL

PGT121 (antibody)
IC50 (TZM-bl neutralization) [1]: 0.02 µg/mL
IC50 (TZM-bl neutralization) [2]: 0.01 µg/mL
IC80 (TZM-bl neutralization) [3]: > 50 µg/mL
IC50 (TZM-bl neutralization) [4]: 0.014 µg/mL
IC50 (TZM-bl neutralization) [5]: > 50 µg/mL
IC80 (TZM-bl neutralization) [6]: > 50 µg/mL
IC50 (TZM-bl neutralization) [7]: 0.083 µg/mL
IC50 (TZM-bl neutralization) [8]: 0.128 µg/mL
IC50 (TZM-bl neutralization) [9]: > 50 µg/mL
IC80 (TZM-bl neutralization) [10]: > 50 µg/mL
IC50 (TZM-bl neutralization) [11]: > 50 µg/mL
IC50 (TZM-bl neutralization) [12]: 0.098 µg/mL
IC50 (TZM-bl neutralization) [13]: > 50 µg/mL
IC80 (TZM-bl neutralization) [14]: > 50 µg/mL
IC50 (TZM-bl neutralization) [15]: 6.72 µg/mL
IC80 (TZM-bl neutralization) [16]: > 50 µg/mL
IC50 (TZM-bl neutralization) [17]: 0.001 µg/mL
IC50 (TZM-bl neutralization) [18]: 3.74 µg/mL
IC50 (TZM-bl neutralization) [19]: > 50 µg/mL
IC50 (TZM-bl neutralization) [20]: 0.004 µg/mL
IC50 (TZM-bl neutralization) [21]: 0.056 µg/mL
IC50 (TZM-bl neutralization) [22]: 5.08 µg/mL
IC50 (TZM-bl neutralization) [23]: > 50 µg/mL
IC80 (TZM-bl neutralization) [24]: 45.6 µg/mL
IC80 (TZM-bl neutralization) [25]: > 50 µg/mL
IC80 (TZM-bl neutralization) [26]: > 50 µg/mL
IC80 (TZM-bl neutralization) [27]: 0.017 µg/mL
IC50 (TZM-bl neutralization) [28]: 8.99 µg/mL
IC50 (TZM-bl neutralization assay) [29]: 3.9 µg/mL
IC80 (TZM-bl neutralization assay) [29]: 26.9 µg/mL
IC80 (TZM-bl neutralization) [30]: 8.98 µg/mL
IC80 (TZM-bl neutralization) [31]: > 50 µg/mL
IC80 (TZM-bl neutralization) [32]: > 50 µg/mL
IC50 (TZM-bl neutralization assay) [33]: 1.08 µg/mL
IC80 (TZM-bl neutralization) [34]: > 50 µg/mL
IC80 (TZM-bl neutralization) [35]: 0.945 µg/mL
IC50 (TZM-bl neutralization) [36]: > 50 µg/mL
IC80 (TZM-bl neutralization) [37]: > 50 µg/mL
IC50 (TZM-bl neutralization) [38]: > 50 µg/mL
IC50 (TZM-bl neutralization) [39]: 0.083 µg/mL
IC50 (TZM-bl neutralization assay) [40]: 0.147 µg/mL
IC80 (TZM-bl neutralization assay) [40]: 1.1 µg/mL
IC80 (TZM-bl neutralization) [41]: 24.6 µg/mL
IC80 (TZM-bl neutralization) [42]: > 50 µg/mL
IC50 (TZM-bl neutralization) [43]: 1.04 µg/mL
IC80 (TZM-bl neutralization) [44]: > 50 µg/mL
IC80 (TZM-bl neutralization) [45]: 0.128 µg/mL
IC80 (TZM-bl neutralization) [46]: 0.031 µg/mL
IC80 (TZM-bl neutralization) [47]: 0.061 µg/mL
IC50 (TZM-bl neutralization) [48]: > 50 µg/mL
IC50 (TZM-bl neutralization) [49]: 0.921 µg/mL
IC50 (TZM-bl neutralization) [50]: > 50 µg/mL
